In patent US20180291110A1 (Hoffmann-La Roche, published 2018):
Positions count from the first letter of the chain named. Each block holds one binder with its values, some of them ahead of it.

Target: T1, human transferrin receptor (recombinant, for surface plasmon resonance) (human, UniProt P02786 89-760)
T1 construct: also called huTfR; human transferrin receptor-biotinylated
Test: SPR 25C

T1 sequence (P02786 89-760 limits assumed): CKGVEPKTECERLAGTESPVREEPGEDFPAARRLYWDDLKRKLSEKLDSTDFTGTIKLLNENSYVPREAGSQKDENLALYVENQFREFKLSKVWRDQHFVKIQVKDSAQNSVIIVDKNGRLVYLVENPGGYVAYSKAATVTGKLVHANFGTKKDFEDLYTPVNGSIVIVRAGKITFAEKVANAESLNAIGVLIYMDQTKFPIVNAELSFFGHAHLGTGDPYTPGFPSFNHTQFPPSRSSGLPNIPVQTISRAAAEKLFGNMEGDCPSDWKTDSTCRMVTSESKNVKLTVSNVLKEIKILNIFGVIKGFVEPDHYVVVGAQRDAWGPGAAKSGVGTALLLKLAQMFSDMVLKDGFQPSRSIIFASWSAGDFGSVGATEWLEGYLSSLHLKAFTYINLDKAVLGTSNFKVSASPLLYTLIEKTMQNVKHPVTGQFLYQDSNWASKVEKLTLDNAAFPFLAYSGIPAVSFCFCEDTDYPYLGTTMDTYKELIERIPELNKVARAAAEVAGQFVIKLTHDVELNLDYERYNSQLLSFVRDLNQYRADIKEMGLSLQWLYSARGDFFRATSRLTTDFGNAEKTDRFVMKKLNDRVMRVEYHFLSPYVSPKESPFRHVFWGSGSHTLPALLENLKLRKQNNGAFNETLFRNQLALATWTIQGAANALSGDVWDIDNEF

B1: 2/99 VH17/VL6 (antibody, V domains shown)
VH: QQLQESGPGLVKPSETLSLTCTVSGFSLSSYAMSWVRQPPGKGLEWIGYIWSGGSTDYNPSLKSRVTISKDTSKNQVSLKLSSVTAADTAVYYCARRYGTSYPDYGDANGFDPWGPGTLVTVSS
VL: AIQLTQSPSSLSASVGDRVTITCRASQSISSYLSWYQQKPGKAPKLLIYRASTLASGVPSRFSGSGSGTDFTLTISSLQPEDFATYYCQQSYSSSNVDNTFGGGTKVEIK
- koff: 0.00171 s⁻¹

B2: 2/99 VH20/VL7 (antibody, V domains shown)
VH: B1 VH with Q2S, L3M, E15Q, V36I, P39H, N59A, K70V, P116Q
VL: B1 VL with S34A
- koff: 0.00714 s⁻¹

B4: 2/99 VH8/VL8 (antibody, V domains shown)
VH: QQLVETGGGLIQPGGSLRLSCAASGFSLSSYAMSWVRQAPGKGLEWIGYIWSGGSTDYASWAKGRFTISKTSTTLYLQMNSLRAEDTAVYYCARRYGTSYPDYGDANGFDPWGQGTLVTVSS
VL: B1 VL with I2Y
- koff: 0.00116 s⁻¹

B5: 2/99 VH19/VL6 (antibody, V domains shown)
VH: B1 VH with Q2S, L3M, E15Q, V36I, P39H, N59A, K70V, V77F, P116Q
VL: B1 VL
- koff: 0.001 s⁻¹

B6: 2/99 VH1/VL8 (antibody, V domains shown)
VH: VQLVETGGGLIQPGGSLRLSCAASGFSLSSYAMSWVRQAPGKGLEWVGYIWSGGSTDYADSVKGRFTISRDNSKNTLYLQMNSLRAEDTAVYYCARRYGTSYPDYGDANGFDPWGQGTLVTVSS
VL: B1 VL with I2Y
- koff: 0.00485 s⁻¹

B7: 2/99 VH8/VL7 (antibody, V domains shown)
VH: B4 VH
VL: B1 VL with S34A
- koff: 0.00231 s⁻¹

B9: 2/99 VH5/VL7 (antibody, V domains shown)
VH: B6 VH with V1Q, Q2S, L3M, V4E, Q116P
VL: B1 VL with S34A
- koff: 0.00697 s⁻¹

B11: 2/99 VH22/VL7 (antibody, V domains shown)
VH: B1 VH with Q2S, L3M, E15Q, P39H, N59A, P60S, S61W, L62A, K70V, P116Q
VL: B1 VL with S34A
- koff: 0.00337 s⁻¹

B12: 2/99 VH1/VL7 (antibody, V domains shown)
VH: B6 VH
VL: B1 VL with S34A
- koff: 0.00733 s⁻¹

B15: 2/99 VH21/VL7 (antibody, V domains shown)
VH: QSMQESGPGLVKPSQTLSLTCTVSGFSLSSYAMSWIRQHPGKGLEWIGYIWSGGSTDYASWAKSRVTISVDTSKNQVSLKLSSVTAADTAVYYCARRYGTSYPDYGDANGFDPWGQGTLVTVSS
VL: B1 VL with S34A
- koff: 0.00238 s⁻¹

B19: 2/99 VH13/VL8 (antibody, V domains shown)
VH: QVQLQESGPGLVKPSETLSLTCTVSGFSLSSYAMSWIRQPPGKGLEWIGYIWSGGSTDYNPSLKSRVTISVDTSKNQVSLKLSSVTAADTAVYYCARRYGTSYPDYGDANGFDPWGQGTLVTVSS
VL: B1 VL with I2Y
- koff: 0.00247 s⁻¹

B20: 2/99 VH11/VL7 (antibody, V domains shown)
VH: B6 VH with V1Q, V4L, T6S, I11V
VL: B1 VL with S34A
- koff: 0.00781 s⁻¹

B21: 2/99 VH12/VL7 (antibody, V domains shown)
VH: B19 VH with V78F
VL: B1 VL with S34A
- koff: 0.00771 s⁻¹

B22: 2/99 VH21/VL6 (antibody, V domains shown)
VH: B15 VH
VL: B1 VL
- koff: 0.00207 s⁻¹

B23: 2/99 VH11/VL8 (antibody, V domains shown)
VH: B6 VH with V1Q, V4L, T6S, I11V
VL: B1 VL with I2Y
- koff: 0.00552 s⁻¹

B24: 2/99 VH12/VL8 (antibody, V domains shown)
VH: B19 VH with V78F
VL: B1 VL with I2Y
- koff: 0.00531 s⁻¹

B26: 2/99 VH6/VL7 (antibody, V domains shown)
VH: B6 VH with V1Q, V47I
VL: B1 VL with S34A
- koff: 0.00563 s⁻¹

B27: 2/99 VH2/VL8 (antibody, V domains shown)
VH: EVQLVETGGGLIQPGGSLRLSCAASGFSLSSYAMSWVRQAPGKGLEWVGYIWSGGSTDYADSVKGRFTISRDNSKNTLYLQMNSLRAEDTAVYYCARRYGTSYPDYGDANGFDPWGQGTLVTVSS
VL: B1 VL with I2Y
- koff: 0.00394 s⁻¹

B29: 2/99 VH9/VL8 (antibody, V domains shown)
VH: B6 VH with V1Q, V4L, T6S, I11V, S27T, L28F, R96K
VL: B1 VL with I2Y
- koff: 0.00523 s⁻¹

B30: 2/99 VH18/VL6 (antibody, V domains shown)
VH: B19 VH with E16Q, P40H, N60A, V78F
VL: B1 VL
- koff: 0.00674 s⁻¹

B31: 2/99 VH2/VL7 (antibody, V domains shown)
VH: B27 VH
VL: B1 VL with S34A
- koff: 0.0075 s⁻¹

B32: 2/99 VH20/VL6 (antibody, V domains shown)
VH: B15 VH with S60P, W61S, A62L
VL: B1 VL
- koff: 0.00606 s⁻¹

B35: 2/99 VH7/VL8 (antibody, V domains shown)
VH: B6 VH with V1Q, V47I, D60S, S61W, V62A
VL: B1 VL with I2Y
- koff: 0.00172 s⁻¹

Now from value to binder:

- koff: 0.00668 s⁻¹
B3: 2/99 VH13/VL7 (antibody, V domains shown)
VH: B19 VH
VL: B1 VL with S34A

- koff: 0.00155 s⁻¹
B8: 2/99 VH23-DANG/VL7 (antibody, V domains shown)
VH: QSMQESGPGLVKPSQTLSLTCTVSGFSLSSYAMSWIRQHPGKGLEWIGYIWSGGSTDYASWAKSRVTISKTSTTVSLKLSSVTAADTAVYYCARRYGTSYPDYGDANGFDPWGQGTLVTVSS
VL: B1 VL with S34A

- koff: 0.00525 s⁻¹
B10: 2/99 VH16/VL7 (antibody, V domains shown)
VH: B1 VH with K70V
VL: B1 VL with S34A

- koff: 0.00761 s⁻¹
B13: 2/99 VH9/VL7 (antibody, V domains shown)
VH: B6 VH with V1Q, V4L, T6S, I11V, S27T, L28F, R96K
VL: B1 VL with S34A

- koff: 0.00214 s⁻¹
B14: 2/99 VH22/VL6 (antibody, V domains shown)
VH: B15 VH with I36V
VL: B1 VL

- koff: 0.001 s⁻¹
B16: 2/99 VH19/VL7 (antibody, V domains shown)
VH: B15 VH with S60P, W61S, A62L, V77F
VL: B1 VL with S34A

- koff: 0.00378 s⁻¹
B17: 2/99 VH5/VL8 (antibody, V domains shown)
VH: B6 VH with V1Q, Q2S, L3M, V4E, Q116P
VL: B1 VL with I2Y

- koff: 0.00366 s⁻¹
B18: 2/99 VH7/VL7 (antibody, V domains shown)
VH: B6 VH with V1Q, V47I, D60S, S61W, V62A
VL: B1 VL with S34A

- koff: 0.00766 s⁻¹
B25: 2/99 VH18/VL7 (antibody, V domains shown)
VH: B19 VH with E16Q, P40H, N60A, V78F
VL: B1 VL with S34A

- koff: 0.00233 s⁻¹
B28: 2/99 VH17/VL7 (antibody, V domains shown)
VH: B1 VH
VL: B1 VL with S34A

- koff: 0.00301 s⁻¹
B33: 2/99 VH6/VL8 (antibody, V domains shown)
VH: B6 VH with V1Q, V47I
VL: B1 VL with I2Y

- koff: 0.00543 s⁻¹
B34: 2/99 VH15/VL7 (antibody, V domains shown)
VH: B1 VH with K70V, P116Q
VL: B1 VL with S34A
